Assay results from PMC10022624, “A mini-TGA protein modulates gene expression through heterogeneous association with transcription factors” (Plant Physiology, 2022).

T1: StTGA2.1 (mini-TGA) (Solanum tuberosum cv. Rywal, UniProt A0A9F1U434 1-270)
T1 sequence: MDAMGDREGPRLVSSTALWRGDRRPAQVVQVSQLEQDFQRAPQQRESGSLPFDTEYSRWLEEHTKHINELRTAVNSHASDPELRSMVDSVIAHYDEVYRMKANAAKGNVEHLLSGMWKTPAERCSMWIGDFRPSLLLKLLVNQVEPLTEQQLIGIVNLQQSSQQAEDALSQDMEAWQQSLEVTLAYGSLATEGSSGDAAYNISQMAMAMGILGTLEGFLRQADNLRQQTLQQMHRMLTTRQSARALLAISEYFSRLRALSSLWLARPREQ

T2: StTGA2.3 (Solanum tuberosum cv. Rywal, UniProt A0A9F1U446 1-327)
T2 sequence: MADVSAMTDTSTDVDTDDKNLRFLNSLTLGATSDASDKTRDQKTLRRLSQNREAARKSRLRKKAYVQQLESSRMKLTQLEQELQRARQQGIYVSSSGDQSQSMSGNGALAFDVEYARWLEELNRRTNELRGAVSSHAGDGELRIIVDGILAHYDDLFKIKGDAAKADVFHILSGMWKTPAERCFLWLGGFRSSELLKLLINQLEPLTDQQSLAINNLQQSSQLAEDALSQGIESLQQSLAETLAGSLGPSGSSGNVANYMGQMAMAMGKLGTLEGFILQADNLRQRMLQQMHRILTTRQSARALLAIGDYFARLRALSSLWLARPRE

T3: StTGA2.3;StTGA2.1 (mini-TGA) (Solanum tuberosum cv. Rywal;Solanum …, UniProt A0A9F1U446;A0A9F1U434 1-327;1-270, |)
T3 sequence 1: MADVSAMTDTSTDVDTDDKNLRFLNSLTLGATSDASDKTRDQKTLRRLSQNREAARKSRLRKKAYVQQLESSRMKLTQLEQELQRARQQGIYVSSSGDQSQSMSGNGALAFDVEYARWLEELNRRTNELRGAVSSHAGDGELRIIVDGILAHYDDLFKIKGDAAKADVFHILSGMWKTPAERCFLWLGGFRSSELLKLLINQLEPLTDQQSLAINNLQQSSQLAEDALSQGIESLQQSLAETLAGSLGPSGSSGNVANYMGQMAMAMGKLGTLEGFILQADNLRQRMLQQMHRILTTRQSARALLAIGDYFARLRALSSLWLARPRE
T3 sequence 2: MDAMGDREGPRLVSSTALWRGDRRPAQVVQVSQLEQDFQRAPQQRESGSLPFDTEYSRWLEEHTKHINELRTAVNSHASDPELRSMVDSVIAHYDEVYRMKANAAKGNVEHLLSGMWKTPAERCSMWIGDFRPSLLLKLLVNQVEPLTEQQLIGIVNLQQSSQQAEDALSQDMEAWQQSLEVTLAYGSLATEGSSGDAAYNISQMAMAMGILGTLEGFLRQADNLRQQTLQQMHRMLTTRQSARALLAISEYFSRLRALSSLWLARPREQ


Experiments:
[1] = molecular target: HA-tagged StTGA2.3, expressed in N. benthamiana (potato (Solanum tuberosum))
StTGA2.1 (mini-TGA) = molecular target: T1, StTGA2.1 (mini-TGA); assay: SPR; 18.75-300 nM protein; 180 mM NaCl; 1 mM Mg2+; SPR Biacore T200, 25 C, 25 mM Tris pH 7.4, 140 mM NaCl (180 mM for StTGA2.1 alone), 1 mM MgCl2, 0.005% P20; conditions: protein: recombinant; tags: N-terminal His6; chain copies: 2; 5' overhang 15 nt on strand 1
StTGA2.3 [2] = molecular target: T2, StTGA2.3; assay: SPR; 1 mM Mg2+; dose-dependent response; SPR Biacore T200, 25 C, 25 mM Tris pH 7.4, 140 mM NaCl (180 mM for StTGA2.1 alone), 1 mM MgCl2, 0.005% P20; conditions: protein: ivt; tags: C-terminal GS peptide; chain copies: 2; 5' overhang 15 nt on strand 1
[3] = molecular target: T3, StTGA2.3;StTGA2.1 (mini-TGA); assay: SPR; premixed with 300 nM StTGA2.1; higher response than StTGA2.3 alone; SPR Biacore T200, 25 C, 25 mM Tris pH 7.4, 140 mM NaCl (180 mM for StTGA2.1 alone), 1 mM MgCl2, 0.005% P20; conditions: protein: ivt;recombinant; tags: C-terminal GS peptide;N-terminal His6; copies: 1;1; 5' overhang 15 nt on strand 1
StTGA2.3 [4] = molecular target: T2, StTGA2.3; assay: SPR; 1 mM Mg2+; interaction negligible; SPR Biacore T200, 25 C, 25 mM Tris pH 7.4, 140 mM NaCl (180 mM for StTGA2.1 alone), 1 mM MgCl2, 0.005% P20; conditions: protein: ivt; tags: C-terminal GS peptide; chain copies: 2; 5' overhang 15 nt on strand 1
[5] = molecular target: the molecule itself; assay: SEC; His6-tagged StTGA2.1; oligomeric state from elution volume against the Gel Filtration LMW calibration kit; 30 mM Tris pH 7.5, 400 mM NaCl

Molecule	binding result (StTGA2.1 (mini-TGA))	binding result (StTGA2.3 [2])	binding result [3]	binding result (StTGA2.3 [4])	also measured
StTGA2.1, GFP- or HA-tagged, expressed in N. benthamiana (natural protein)					StPRX07::LucF promoter activity (luciferase transactivation assay) in N. benthamiana leaves coexpressing GFP-tagged StTGA2.1 and BFP-tagged StTGA2.3, compared to control [1]: > 2 fold
PRX07p_2 (dsDNA) DNA 1: GTTACTACTCGAGCGTTAGGGGTGACGTTTCCAAT DNA 2: ATTGGAAACGTCACCCCTAA	no binding	binds	binds		
PRX46p (dsDNA) DNA 1: GTTACTACTCGAGCGTGAACCTGAGGTCAACCGTT DNA 2: AACGGTTGACCTCAGGTTCA	no binding			no binding	
PRX15p_1 (dsDNA) DNA 1: GTTACTACTCGAGCGTTTAATAATGATGACATTTG DNA 2: CAAATGTCATCATTATTAAA	no binding			no binding	
His6-tagged StTGA2.1, recombinant (natural protein, potato (Solanum tuberosum), UniProt A0A9F1U434 1-270, looked up, StTGA2.1, potato (Solanum tuberosum) cultivar Rywal; full-length cds in pMCSG7; C-terminal region printed as aa 47-240; Dimer by SEC elution volume; The tag is removable by TEV protease; not shown: His6, N-terminal, kept) MDAMGDREGPRLVSSTALWRGDRRPAQVVQVSQLEQDFQRAPQQRESGSLPFDTEYSRWLEEHTKHINELRTAVNSHASDPELRSMVDSVIAHYDEVYRMKANAAKGNVEHLLSGMWKTPAERCSMWIGDFRPSLLLKLLVNQVEPLTEQQLIGIVNLQQSSQQAEDALSQDMEAWQQSLEVTLAYGSLATEGSSGDAAYNISQMAMAMGILGTLEGFLRQADNLRQQTLQQMHRMLTTRQSARALLAISEYFSRLRALSSLWLARPREQ					stoichiometry N [5]: 2
PRX07p_1 (dsDNA) DNA 1: GTTACTACTCGAGCGTGTGCCCAACGTCACAATCC DNA 2: GGATTGTGACGTTGGGCACA	no binding	binds	binds		
